# Literature values in patent publication US7132274B2, “Method for identifying modulators of CLK-1 and UbiF activity” (priority 2003, dated 2006).
# System: E. coli JF496 (ubiF411)
# Settings: yeast orthologue of clk-1; cited from earlier work
molecule,measurement,value
"Saccharomyces pombe coq7: yeast orthologue of clk-1 (protein, UniProt O74826 28-216, looked up) 5-demethoxyubiquinone …: ISMGRKELSEKDSNILDSVIRVDQAGELGANQIYKGQHFILQFTDPKVAPTIQHMWDQEKYHLATFDNYVLKNRVRPTFLRPFWDIAGFALGAGTALLGTKAAMACTEAVETVIGGHYNDQLRETAHLENKAPEFKEIRSHLAEFRDDELEHLNTAVEGWNAKEAPAHALLTNAIQMGCKAAIWMCKRF",complementation of UbiF-deficiency in JF496 bacteria,cannot complement
